T1: trop-2 protein (UniProt P09758 27-274, limits assumed)
T1 construct: Bought antigen, used as the SPR analyte; The printed catalogue number is doubtful
T1 sequence (looked up): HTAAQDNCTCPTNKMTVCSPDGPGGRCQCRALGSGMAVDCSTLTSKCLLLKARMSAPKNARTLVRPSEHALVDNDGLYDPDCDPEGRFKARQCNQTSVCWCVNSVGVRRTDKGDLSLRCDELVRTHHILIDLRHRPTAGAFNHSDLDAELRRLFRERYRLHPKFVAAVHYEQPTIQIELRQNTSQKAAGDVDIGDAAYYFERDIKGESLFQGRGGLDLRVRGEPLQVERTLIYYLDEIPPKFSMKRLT


Assays:
trop-2 protein = molecular target: T1, trop-2 protein; assay: SPR (Biacore T100, 25 C); binder captured on anti-human IgG CM5 chip, trop-2 protein as analyte
GPC-3 protein = molecular target: T2, GPC-3 protein (UniProt P51654 25-559, limits assumed); assay: SPR (Biacore T100, 25 C); binder captured on anti-human IgG CM5 chip, GPC-3 protein as analyte
T2 construct: Bought antigen, used as the SPR analyte; also called Glypican-3
T2 sequence (P51654 25-559 limits assumed): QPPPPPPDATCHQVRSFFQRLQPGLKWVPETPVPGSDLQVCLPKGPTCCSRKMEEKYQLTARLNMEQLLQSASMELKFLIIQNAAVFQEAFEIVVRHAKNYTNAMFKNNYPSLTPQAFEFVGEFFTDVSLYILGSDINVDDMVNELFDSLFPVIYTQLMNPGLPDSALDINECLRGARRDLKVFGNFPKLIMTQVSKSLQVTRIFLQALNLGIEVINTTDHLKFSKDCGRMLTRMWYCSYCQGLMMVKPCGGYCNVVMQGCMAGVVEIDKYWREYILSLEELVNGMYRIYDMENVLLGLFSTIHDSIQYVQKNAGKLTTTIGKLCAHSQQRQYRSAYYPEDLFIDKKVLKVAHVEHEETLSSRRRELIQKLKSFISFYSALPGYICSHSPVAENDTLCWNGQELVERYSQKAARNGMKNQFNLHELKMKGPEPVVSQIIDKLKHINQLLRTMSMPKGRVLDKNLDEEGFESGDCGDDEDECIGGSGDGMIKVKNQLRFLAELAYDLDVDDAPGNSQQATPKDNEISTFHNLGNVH

Row | Binder | Kd (trop-2 protein) [nM] | koff (trop-2 protein) [s⁻¹] | kon (trop-2 protein) [M⁻¹ s⁻¹] | Kd (GPC-3 protein) [nM] | koff (GPC-3 protein) [s⁻¹] | kon (GPC-3 protein) [M⁻¹ s⁻¹]
1 | anti-trop-2 antibody BY43 (sacituzumab) (antibody, human IgG1, kappa, V domains shown, Made in-house from INN 10418; also called control antibody BY43) VH: QVQLQQSGSELKKPGASVKVSCKASGYTFTNYGMNWVKQAPGQGLKWMGWINTYTGEPTYTDDFKGRFAFSLDTSVSTAYLQISSLKADDTAVYFCARGGFGSSYWYFDVWGQGSLVTVSS VL: DIQLTQSPSSLSASVGDRVSITCKASQDVSIAVAWYQQKPGKAPKLLIYSASYRYTGVPDRFSGSGSGTDFTLTISSLQPEDFAVYYCQQHYITPLTFGAGTKVEIKR | 0.857 | 4.82e-05 | 56300 | – | – | –
2 | anti-GPC-3 antibody BY20.2 (codrituzumab) (antibody, human IgG1, kappa, V domains shown, Made in-house from INN 9759; If the listing has 19, the mature range is 20-238; also called control antibody BY20.2) VH: QVQLVQSGAEVKKPGASVKVSCKASGYTFTDYEMHWVRQAPGQGLEWMGALDPKTGDTAYSQKFKGRVTLTADKSTSTAYMELSSLTSEDTAVYYCTRFYSYTYWGQGTLVTVSS VL: DVVMTQSPLSLPVTPGEPASISCRSSQSLVHSNRNTYLHWYLQKPGQSPQLLIYKVSNRFSGVPDRFSGSGSGTDFTLKISRVEAEDVGVYYCSQNTHVPPTFGQGTKLEIKR | – | – | – | 2.08 | 7.57e-05 | 36400

— patent US20230235011A1 (BEIJING BEYOND BIOTECHNOLOGY, published 2023)
